Data as given in patent US7657380.
Positions count from the first letter of the chain named.

B1: AC10 H3/L3.3 (antibody, IgG1, name in Kabat numbering, V domains shown)
VH: QIQLVQSGPEVKKPGASVKVSCKASGYTFTDYYITWVRQAPGQGLEWMGWIYPGSGNTKYNEKFQGRFVFSVDTSASTAYLQISSLKAEDTAVYFCANYGNYWFAYWGQGTLVTVSS
VL: NIVLTQSPDSLAVSLGERATINCKASQSVDFDGDSYMNWYQQKPGQPPKVLIYAASNLESGIPARFSGSGSGTDFTLTINSLEAEDAATYYCQQSNEDPWTFGGGTKVEIK
B2: AC10 H3/L3.17 (antibody, IgG1, name in Kabat numbering, V domains shown)
VH: B1 VH
VL: B1 VL with N1D, D34K
B3: AC10 H3/L3.5 (antibody, IgG1, name in Kabat numbering, V domains shown)
VH: B1 VH
VL: B1 VL with N1D, V3Q
B4: AC10 H3/L3.4 (antibody, IgG1, name in Kabat numbering, V domains shown)
VH: B1 VH
VL: B1 VL with N1S
B5: AC10 H3/L3.19 (antibody, IgG1, name in Kabat numbering, V domains shown)
VH: B1 VH
VL: B1 VL with N1D, D34S
B6: AC10 H3/L3.23 (antibody, IgG1, name in Kabat numbering, V domains shown)
VH: B1 VH
VL: B1 VL with N1D, S35N
B7: AC10 H3/L3.22 (antibody, IgG1, name in Kabat numbering, V domains shown)
VH: B1 VH
VL: B1 VL with N1D, S35T
B8: AC10 H3/L3.9 (antibody, IgG1, name in Kabat numbering, V domains shown)
VH: B1 VH
VL: B1 VL with N1D, V29I
B9: AC10 H3/L3.8 (antibody, IgG1, name in Kabat numbering, V domains shown)
VH: B1 VH
VL: B1 VL with N1D, S28D
B10: AC10 H3/L3.20 (antibody, IgG1, name in Kabat numbering, V domains shown)
VH: B1 VH
VL: B1 VL with N1D, D34Y
B11: AC10 H3/L3.13 (antibody, IgG1, name in Kabat numbering, V domains shown)
VH: B1 VH
VL: B1 VL with N1D, F31D
B12: AC10 H3/L3.6 (antibody, IgG1, name in Kabat numbering, V domains shown)
VH: B1 VH
VL: B1 VL with N1D, L4M
B13: AC10 H3/L3.16 (antibody, IgG1, name in Kabat numbering, V domains shown)
VH: B1 VH
VL: B1 VL with N1D, D32N
B14: AC10 H3/L3.15 (antibody, IgG1, name in Kabat numbering, V domains shown)
VH: B1 VH
VL: B1 VL with N1D, F31Y
B15: AC10 H3/L3.12 (antibody, IgG1, name in Kabat numbering, V domains shown)
VH: B1 VH
VL: B1 VL with N1D, D30V
B16: AC10 H3/L3.21 (antibody, IgG1, name in Kabat numbering, V domains shown)
VH: B1 VH
VL: B1 VL with N1D, S35D
B17: AC10 H3/L3.18 (antibody, IgG1, name in Kabat numbering, V domains shown)
VH: B1 VH
VL: B1 VL with N1D, D34N

Biological target: T1, human CD30 (commercial, conjugated to digoxigenin) (human, UniProt P28908 19-379, limits assumed, conjugated to digoxigenin (DIG))
T1 sequence (looked up): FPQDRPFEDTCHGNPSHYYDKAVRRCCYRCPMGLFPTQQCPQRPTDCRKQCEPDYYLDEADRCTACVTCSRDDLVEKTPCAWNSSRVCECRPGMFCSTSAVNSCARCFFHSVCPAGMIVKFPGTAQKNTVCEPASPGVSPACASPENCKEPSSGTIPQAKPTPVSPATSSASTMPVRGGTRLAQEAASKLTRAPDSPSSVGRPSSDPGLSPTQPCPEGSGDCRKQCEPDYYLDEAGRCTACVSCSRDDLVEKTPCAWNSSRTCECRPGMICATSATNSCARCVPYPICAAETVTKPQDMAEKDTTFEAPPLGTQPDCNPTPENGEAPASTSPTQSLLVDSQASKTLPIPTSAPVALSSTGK
Experiment: AlphaScreen competition

Row | Binder | Fold IC50 vs H3/L3 [fold]
1 | B1 | 1.66
2 | B2 | 1.21
3 | B3 | 1.32
4 | B4 | 1.04
5 | B5 | 1.13
6 | B6 | 0.71
7 | B7 | 0.46
8 | B8 | 0.58
9 | B9 | 0.94
10 | B10 | 0.78
11 | B11 | 0.32
12 | B12 | 1.64
13 | B13 | 1.61
14 | B14 | 0.63
15 | B15 | 1.15
16 | B16 | 0.81
17 | B17 | 1.45
